68 sequences from the domain aggregation screens of Martell et al. (2025) can be followed below.

A value given as a limit tells only on which side of the number the result lay.

This data set in a line: soluble fraction after stress (log2 fold change); higher = more stays soluble; pooled small domains, quantitative proteomics. Conditions: stress: pH 4. The method in brief: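 Pooled custom libraries of small protein domains were stressed at pH 4 and then measured by high-throughput quantitative proteomics. The fold change in the amount of each domain that stays soluble after the acid stress serves as a measure of aggregation propensity. Fold changes are given on a log2 scale, and higher values mean more of the domain stayed soluble.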
With “HMGEVQALIPGLVSKLFVVEGESVKIGQKLIILEAMKMENEIASPINGTIKKIYIKSGDKIDKGSIIMEIT”, the “soluble fraction (log2)” value is -0.0106.

“HMGEVVSAPMPGTILSIKVSQGQTVKRGQVLLILEAMKMENEIVAPRDGVVVQISTTQGASVETGAPLVVL”: the “soluble fraction (log2)” value is -0.118.

As to “HMGEVYPSDIVEKMKQANLHILEGTLYPLLTRLKNAGLLNYRWVESVTGPPRKYFVMTEEGKAAF”, the “soluble fraction (log2)” value was 0.0276.

Regarding “HMGEWHQMLRSWGETELKNGRQNILDEAVPAFERAMIETALAHTSGRKKDAALLLGWGRNTLTRKLQEHSI”, the “soluble fraction (log2)” value is -0.349.

Regarding “HMGEYGVLWYLLTKKEAVSAGELKEKLHVVPGRMTDILTALEKKGLIIRQKNKTDKRVVDVVLTKEGEKEA”, the “soluble fraction (log2)” value is -0.511.

Consider “HMGFAEFWLAYPKKVGKGEAERKWKTLKPDAGAVLSAVKRQSASEQWRKDGGRYIPNPATWLHQRRWE”, for which the “soluble fraction (log2)” value was 0.243.

With “HMGFALLIAIERTGNTTYFVKLTLIKKGSDSDVLKDSFSVSQGDLVGTATYDSVIANRIREKTAAMWQKAT”, the “soluble fraction (log2)” value was -0.73.

As to “HMGFDTSMNKYTIDDLLKLLELGSNPSQAEIVNKITNFNTIFVDNSGVIQFLNNIQDKLLDNFK”, the “soluble fraction (log2)” value is -0.95.

As for “HMGFDTVVEKVLGLITSRPMTSRDIQMTLGRSREHTSRLMNRLYKEGLVDRNTSSKPFSYIITEKGREKI”, the “soluble fraction (log2)” value turned out to be 0.424.

As to “HMGFPAPFDGKAVAELRRRLGLTRRGLAEELSVSPSTVDKWEQGDVALRSPALTILKILWHQGLKALPP”, the “soluble fraction (log2)” value is not below 0.43.

Consider “HMGFSDDEHNALADADLKKALEVTTNKSETQYNIAKLIYSYIISLGDKKPYGDWSYDKALSIIHDA”, for which the “soluble fraction (log2)” value is -0.00141.

As to “HMGGAVQIAEQIAARIKDGALRPGELLPPVRQLAAELEVNPNTVASAYARLRDAGLVATRGRAGTVVLEPP”, the “soluble fraction (log2)” value was -0.246.

Consider “HMGGAYATVKLSSSSSQLNVRASASTASRVVARLSHGFRVEVLGVSGDWVKIRALGVEGYVARAYLALEGE”, for which the “soluble fraction (log2)” value was -0.17.

As to “HMGGEAEVLQSIDEGREVEVRSVAADGSAEVIYRGARWRARAAVGSLAAGRWTIGRVDGTELVLEK”, the “soluble fraction (log2)” value was 0.215.

As to “HMGGEEKALLFGDVDIREAGEITQRLEQAEIPYELRGDGSSIFVPRSRVMEARMMISADGLL”, the “soluble fraction (log2)” value was -0.901.

For the sequence “HMGGEKLPAPVAGTLLRYSVAEGARVSEGQTVIILESMKMELEINTPKAGVIHFLAAVGAQVAEGDTLAEI”, the “soluble fraction (log2)” value is -0.171.

Consider “HMGGGTPEERLATLAAIAERQEMLLERLGPNNPLVSLGQYSRTLSRMVQLAGFKDASQYFNELPLDFQMPE”, for which the “soluble fraction (log2)” value is -0.437.

As to “HMGGHLAYGFSRRFGLLIDEQQGEPVIIARPDYSPVHYAEARRIVGQPAALRVVDEQAFNQLLQSQQESGA”, the “soluble fraction (log2)” value was -0.383.

With “HMGGLENNLKQARNRVGLTQSELARQAGISRQAYSSLESGAANPSTEVALRLAQALSERVESLFYLPE”, the “soluble fraction (log2)” value is -0.169.

As to “HMGGNVYAYRLTASVKSGEQIPANKIEKVKMLSSDLPTNYVPDTVNVTAYKSKLDLQAGTILSTSLLYEN”, the “soluble fraction (log2)” value turned out to be 0.247.

As to “HMGGPTARQMEVLSLIAQGLPNKRIADELGIAERTVKLHITALLDSLGARNRTHLLVVARERGM”, the “soluble fraction (log2)” value is -0.608.

As for “HMGGQKTREAIFDLIMTNSKITSAQIAEILGIHRSGVARHLKKLQEEGLIKREGPDNGGQWIVIK”, the “soluble fraction (log2)” value is -0.298.

In the case of “HMGGQYQVRPGETLNQIAARVRPSNMSLSETQKAIIQANPDIFKNGNPNLIFAGDILRIPTGNQI”, the “soluble fraction (log2)” value was -0.224.

Turning to “HMGGTTLIAKQATVTGDIQFSSNLDIEGRVVGAISVEPGKEAMLHVVEGGSVEGEIRVPSAVINGKVTGDI”, the “soluble fraction (log2)” value is -0.775.

Turning to “HMGGVEWLTHPIGPRDSLQVLARAGLEARPTSDGDYEIYGQERWPQRDQARLMGWLRRFGQWVWQALYDK”, the “soluble fraction (log2)” value was -0.386.

On to “HMGHEALSSKLDEIQGVGKEKRSLLLDHFKTFERIKNASMEELEAVPSLGKNTAKAVFRFFHS”, for which the “soluble fraction (log2)” value was found to be 0.236.

“HMGHLTWTVTGIGHERRARTVAEQMSSVFGVLEARASSAGTVYLEFEREKIDEGGLEASLKRMGVTRVV”: the “soluble fraction (log2)” value is -2.05.

With “HMGIAFDYDAGRFDQVPPNLVEKWQQAYPAVDVLSELRRMEAWASANPVNRKSNWQRFIVNWLTRAQDRAG”, the “soluble fraction (log2)” value was -0.16.

As to “HMGIAKYRQVTEWIQNRIATGELNRGDQIESENDISRTFGISRQTVRHALGLLEQQGILTRIQGRGTFVRD”, the “soluble fraction (log2)” value was 0.309.

Regarding “HMGIFDIIQEINRQGVTVLLIEQNANMALKIADVGYVLETGRISLTGSGRELLANEAVKKAYL”, the “soluble fraction (log2)” value was not below 0.43.

Regarding “HMGIKYTNQRVEILNFLKDNLSHPTVDDVYEGVKKKLTRISKATVYQNLKFLASKGLIQEVNIKGVSRFEP”, the “soluble fraction (log2)” value is 0.22.

In the case of “HMGIRQGKVTSTFVNVRSGASTANAKVGELHKGDVVSLIEKVANFWRIGPGQFVSADYIQVLAS”, the “soluble fraction (log2)” value is -0.0122.

Consider “HMGIRYQLADDVTDEQITAMTGKKAKIAAAIKAAGSAVSKMNVAGEMGYDKQNPINKDFMELVDAGIIVPS”, for which the “soluble fraction (log2)” value is -0.121.

Regarding “HMGISEKVINIIETYTMIARKKYPSVKSLAEHFNVSERTVHRYLEIIKMIDVVDYDREKKGYFFPYGDR”, the “soluble fraction (log2)” value is -0.462.

On to “HMGISSESIKTFIREIVENEDPKAPLSDQTMVELLAERGIDISRRTVAKYRDEMNLPSSSKRKR”, for which the “soluble fraction (log2)” value was -0.168.

For the sequence “HMGKAMIDWEREQSILRILLRQKALTTEQAREVYQDGMREDLSALEMGVQRGYFTHEQLREATGGE”, the “soluble fraction (log2)” value amounted to 0.00817.

With “HMGKASNEVYEVISSKIRTGEWAPGYKLPSEPTLAEEFGVSRATVREALQELISRGRIKREQGRGTYVLH”, the “soluble fraction (log2)” value was -0.118.

“HMGKAVTLEEARAIIQAKVPGASPDMIQIWEEHGDGRGRYEGELSYNNMKYEFEMDPKTGIIFDWNA”: the “soluble fraction (log2)” value is -0.189.

“HMGKEDISQINKLYQNQILDYETYIDTLNSFNIDTKSKDFKNLLDLFIKKSISFETFNKGIINIHNKS”: the “soluble fraction (log2)” value was -1.01.

Consider “HMGKFMVQVGAFSRINGAEITRTKYDNLGTHKAIIKNLDGMNRVFLTGFLSEDEARDFIASSNLKGAFIIR”, for which the “soluble fraction (log2)” value was -0.0731.

For “HMGKGVDKIMKMADDYSYGKIAGKTVDVMTAKLFQAAYNKAPQKAKDKVDKMNEKQLYIFMMNLWKRF”, the “soluble fraction (log2)” value is 0.0998.

In the case of “HMGKIILLFSDDDGVFDTALYRVRNYDGHRFAQSLGNAEMKWRHSEDEYFDFVLTSLREDGYDIEEIE”, the “soluble fraction (log2)” value was -0.686.

Regarding “HMGKIINMSKVKQVLRLHTQGVSNRRIALDLGLYKGTVNSYIRKIKDHGYDIAEVLKLDDPVLESKLFA”, the “soluble fraction (log2)” value was 0.268.

Take “HMGKKGPELNDNEKIIFNIISKENSMNLDDLKNRTELSNKQWDKAIKGLRSHELVNIEKIDDQLLIHL”: the “soluble fraction (log2)” value was -0.598.

Consider “HMGKKQLVVDLQSIITDVPAALKSYGLEIGQDGKSLIYTYDTKGERTGITTLLNDLQKAGLQMTDMKTQQ”, for which the “soluble fraction (log2)” value is -0.0755.

Regarding “HMGKPTPASQVATRWLAGDLPETLPVAGPAPSFETLARSVSTDFHPRAVLQELLRLGVAEEADGRVRLLK”, the “soluble fraction (log2)” value was -0.0325.

Regarding “HMGKQPLYEQLVDLLRDRIENDMETGELLPSERKLAHHFGLSRTTVRLAMDRLETLGLITRVHGKDTFVAE”, the “soluble fraction (log2)” value is -0.12.

Consider “HMGKREKTKVANRQAILVAARAVFAELGYEAATVRDIIRGTDLASGTFYNYFKSKEEVFDALADDGA”, for which the “soluble fraction (log2)” value was -0.79.

In the case of “HMGKSETALELIKRGHRLIADDAVEITRIGSTLSGTAPELIRNYLEVRGVGVIDVEKLFGVGAVQDSTQI”, the “soluble fraction (log2)” value is -0.0577.

Consider “HMGKSPLDALSAREKEVLTYITRGVSINDIAAVLYLSPKTVSTHKTNLMQKLGIENNADLILFGVNHGLND”, for which the “soluble fraction (log2)” value is -0.897.

For “HMGLIAPMPGQIRSVAVSVGDVVKKGQTLLTMEAMKMEIRIQALKDGRVTALHAAQGQTVEGEQILIEVE”, the “soluble fraction (log2)” value was -0.652.

As for “HMGLLEMPSERERQVLVLIAEGLSNKEIAARLYLTEGTVKNHAHSLYAKLNVTTRTLAIARARQLGI”, the “soluble fraction (log2)” value is -0.731.

With “HMGLLLSQLDKDYQRYIDLADSTFRDNQLAVSRGWYNRALGVKAAEKYPKDQIAEIEKKIAERM”, the “soluble fraction (log2)” value is -0.108.

Regarding “HMGLNEGLNEGQQKVIQHIQENEGIKVKEISLKLNMPIDTVDRHIRVLKNLNLIERRGSRKTGGYFISN”, the “soluble fraction (log2)” value turned out to be 0.111.

Take “HMGLNELQVKLNEAMQRLSLKHRTVVVMHDIEGIPHDEIAKIVGVSVGTIRSRLFYARRQLQADLGEY”: the “soluble fraction (log2)” value is -0.896.

As to “HMGLNNVSDILRLDFNSFKKKFDKLPSGYKNSVVEQAALMIKSGELDSIKIKDYIEKSMGIELDI”, the “soluble fraction (log2)” value was -0.0393.

With “HMGLQDLFLNSLRKSKTPVTMFLVKGVKLQGVVTWFDNFSVLLRRDGMSQLVYKHSISTIMP”, the “soluble fraction (log2)” value came to 0.22.

In the case of “HMGLSARIAQRIHGLRTAQRMSLEALAARSGVSRSMISLIERNEASPTAVVLEKIATGLNVVLAALFDTP”, the “soluble fraction (log2)” value was -0.324.

As to “HMGLSNYEFNSISQTVKEKLEQGPLTLKALVDETAHLFAEDKVVSVVQWLIDQRDLAYDDHGLLQWKG”, the “soluble fraction (log2)” value is -0.871.

As to “HMGLTLREKMGHVLEMLKGREFLPFVSLFTVEEGRIGVVVTFMSILELVKEGILDLVQTESFGPIHVKAR”, the “soluble fraction (log2)” value turned out to be 0.0455.

In the case of “HMGMAETTARILQLLGLLQSRRGWSGQELAERLGVTTRSVRRDVERLRELGYPVHASAGHGGGYQLGA”, the “soluble fraction (log2)” value is -0.106.

Regarding “HMGMGDALRILFNQAMLIEREQYLQAGAYERNENPVNYANGFKAKTLNTRVGALEVAVPQTRDSAFYPSFL”, the “soluble fraction (log2)” value is -0.163.

As to “HMGMLATFVTSAKVPDDVVYAITKEVFENLDEFKKLHPALEGLTRETMLEGLTAPIHPGALKYYKEAGLM”, the “soluble fraction (log2)” value was -1.32.

On to “HMGMSQQKQSSTVRIIMQDISDANEGLMKMSQIIDAALAEGISETIVRNAISNLHRGGTIYESQTGTYQW”, for which the “soluble fraction (log2)” value is -0.392.

Turning to “HMGMTDEELNREEERVVAELEAKDEEELTIYNEEDLTFEETLDLPEGSLMRDRENGMIYLKVLDIWMPY”, the “soluble fraction (log2)” value is -0.831.

For the sequence “HMGMTNRIKELRKAKGYRQEDLAAALGVSRQTIIAVENNKYNPTLELAMKLARHLQTTVEELFQL”, the “soluble fraction (log2)” value was -0.885.

For “HMGMVEFEIGERDHSEDVSRKLFEAGLIEDASDFNQYMIEKKMDDHLQTGKYQIPKGATKDEILELIVR”, the “soluble fraction (log2)” value was -0.674.

In the case of “HMGMYAEERHQAIASLARKHGRVSVAELAERFNVTSETIRRDLDSLARRGLLTRVHGGAVPVE”, the “soluble fraction (log2)” value is not below 0.43.
